# Measurements from patent publication US20130089497A1 (Genentech, published 2013).
# T1: cynomolgus FcRH5 on stably transfected SVT2 cells (cynomologous monkey)
# T1 construct: also called cyno FcRH5; cynoFcRH5
# T1 chain: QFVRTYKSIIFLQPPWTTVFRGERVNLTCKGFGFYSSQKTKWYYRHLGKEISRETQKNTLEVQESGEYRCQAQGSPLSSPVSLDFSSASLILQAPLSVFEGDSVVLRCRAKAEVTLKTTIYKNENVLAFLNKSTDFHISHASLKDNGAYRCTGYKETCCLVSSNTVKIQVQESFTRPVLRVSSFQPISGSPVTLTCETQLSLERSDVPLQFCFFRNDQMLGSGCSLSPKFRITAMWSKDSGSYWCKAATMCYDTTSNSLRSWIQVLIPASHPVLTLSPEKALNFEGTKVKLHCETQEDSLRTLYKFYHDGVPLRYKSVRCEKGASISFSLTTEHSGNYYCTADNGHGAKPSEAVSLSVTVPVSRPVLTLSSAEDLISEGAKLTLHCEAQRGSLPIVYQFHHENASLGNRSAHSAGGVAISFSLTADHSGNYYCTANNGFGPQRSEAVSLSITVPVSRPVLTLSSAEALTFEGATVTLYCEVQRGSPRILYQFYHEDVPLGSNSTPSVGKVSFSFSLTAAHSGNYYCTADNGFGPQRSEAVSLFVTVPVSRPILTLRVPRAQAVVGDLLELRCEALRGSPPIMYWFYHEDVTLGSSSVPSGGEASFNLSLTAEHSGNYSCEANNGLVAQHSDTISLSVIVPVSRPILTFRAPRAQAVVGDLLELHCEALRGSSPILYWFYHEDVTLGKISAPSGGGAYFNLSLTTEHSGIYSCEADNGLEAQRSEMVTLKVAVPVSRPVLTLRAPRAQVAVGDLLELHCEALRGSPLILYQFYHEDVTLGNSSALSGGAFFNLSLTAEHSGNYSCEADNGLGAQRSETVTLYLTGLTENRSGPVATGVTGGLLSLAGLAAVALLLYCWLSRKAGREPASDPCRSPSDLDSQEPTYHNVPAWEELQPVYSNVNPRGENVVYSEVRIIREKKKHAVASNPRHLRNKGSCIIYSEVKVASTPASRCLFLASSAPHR
# T2: gD tagged human FcRH1 on SVT2 cells (human, UniProt Q96LA6 17-429)
# T2 construct: whole, on cells; also called huFcRH1; not shown: gD tag
# T2 sequence (looked up): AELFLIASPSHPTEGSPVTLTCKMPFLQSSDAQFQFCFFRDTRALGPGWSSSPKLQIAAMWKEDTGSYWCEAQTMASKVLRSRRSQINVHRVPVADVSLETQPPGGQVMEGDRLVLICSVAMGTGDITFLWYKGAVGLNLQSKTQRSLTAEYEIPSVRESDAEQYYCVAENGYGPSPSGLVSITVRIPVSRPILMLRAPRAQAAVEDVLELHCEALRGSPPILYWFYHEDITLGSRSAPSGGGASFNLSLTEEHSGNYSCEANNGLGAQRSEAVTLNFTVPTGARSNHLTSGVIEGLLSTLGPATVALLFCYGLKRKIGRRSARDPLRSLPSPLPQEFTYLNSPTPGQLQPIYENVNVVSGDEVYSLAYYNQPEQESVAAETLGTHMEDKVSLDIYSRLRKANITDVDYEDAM
# T3: gD tagged human FcRH4 on SVT2 cells (human, UniProt Q96PJ5 20-515)
# T3 construct: whole, on cells; also called huFcRH4; IRTA1; not shown: gD tag; the construct for this FcRH is not described
# T3 sequence (looked up): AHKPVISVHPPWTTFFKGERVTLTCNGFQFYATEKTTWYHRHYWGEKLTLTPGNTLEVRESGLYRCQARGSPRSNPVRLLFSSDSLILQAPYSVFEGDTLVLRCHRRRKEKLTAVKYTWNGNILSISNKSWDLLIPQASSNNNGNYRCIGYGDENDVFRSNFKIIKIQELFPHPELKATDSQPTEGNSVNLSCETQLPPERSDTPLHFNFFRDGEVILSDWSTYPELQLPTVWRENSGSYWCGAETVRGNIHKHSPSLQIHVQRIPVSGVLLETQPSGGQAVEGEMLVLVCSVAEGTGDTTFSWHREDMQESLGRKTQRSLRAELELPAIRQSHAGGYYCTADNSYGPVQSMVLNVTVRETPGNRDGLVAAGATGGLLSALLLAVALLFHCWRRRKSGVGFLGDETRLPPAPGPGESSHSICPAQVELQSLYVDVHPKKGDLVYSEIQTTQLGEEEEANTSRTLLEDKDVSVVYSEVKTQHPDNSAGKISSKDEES
# What was measured:
# [1] = target: T1, cynomolgus FcRH5 on stably transfected …; test: Scatchard analysis: 0.5 nM 125I-labeled antibody competed with the unlabeled antibody (50 to 0.02 nM) on SVT2.cyFcRH5 cells, 4 h at 4 C; St. Error 0.064
# Method: To further determine binding of the FcRH5 murine antibodies and IgG clones, binding of iodinated IgG variants to OPM2 cells expressing human FcRH5 and SVT2 cells expressing cynomologous FcRH5, Scatchard analysis was performed (Table 9A).
# For Scatchard analysis, 0.5 nM I¹²⁵ labeled murine or IgG clone anti-FcRH5 was competed against unlabeled murine or IgG clone anti-FcRH5, respectively, ranging from 50 to 0.02 nM (12 step 1:2 serial dilution) in the presence of a transfected OPM2 line stably expressing human-FcRH5 and a transfected SVT2 line stably expressing cynomologous-FcRH5. After a four hour incubation at 4° C., cells were washed and cell pellet counts were read by a gamma counter (1470 WIZARD Automatic Gamma Counter; Perkin Elmer, Walthem, Mass.). All points were done in triplicate and counted for 10 minutes. The average CPM was used for Kd calculation using the New Ligand (Genentech, South San Francisco, Calif.) program.
# [2] = target: T2, gD tagged human FcRH1 on SVT2 cells; test: FACS, SVT2.MSCV.gD.FcRH1 cells, PE secondary antibody
# [3] = target: T3, gD tagged human FcRH4 on SVT2 cells; test: FACS, SVT2.MSCV.gD.FcRH4 cells, PE secondary antibody
binder,measurement,setting,value
"murine monoclonal antibody anti-FcRH5-13G9 (antibody, V domains shown, Whole murine IgG from hybridoma; also called 13G9.1.1; mu13G9) VH: EVQLVQSGPELKKPGETVKISCKASGYTFTNYGMNWVKQAPGKGLKWMGWVNTYTGEPTYTDDFKGRFAFSVETSASTVFLQINNLKNEDTATYFCARRSIPYYYAMDYWGQGTSLT VL: DIVMTQSQKIMSTSVGDRVNVTCKASQNVGSNVAWYHQKPGQSPKALIYSASYRYSGVPDRFTGSGSGTDFTLTISNVQSEDLAEYFCQQYKTWTFGGGTKLEIKR",Kd,[1],0.54 nM
same,binding result,[2],no binding (tested: 1.0 ug per about 10^6 cells (p-1120))
same,binding result,[3],no binding (tested: 1.0 ug per about 10^6 cells (p-1120))
